Assay [1] has as its target T1, rat NOGO-A (rat, UniProt Q9JK11 173-975, limits assumed).
T1 construct: Used in 'a similar analysis' by Biacore
T1 sequence (looked up): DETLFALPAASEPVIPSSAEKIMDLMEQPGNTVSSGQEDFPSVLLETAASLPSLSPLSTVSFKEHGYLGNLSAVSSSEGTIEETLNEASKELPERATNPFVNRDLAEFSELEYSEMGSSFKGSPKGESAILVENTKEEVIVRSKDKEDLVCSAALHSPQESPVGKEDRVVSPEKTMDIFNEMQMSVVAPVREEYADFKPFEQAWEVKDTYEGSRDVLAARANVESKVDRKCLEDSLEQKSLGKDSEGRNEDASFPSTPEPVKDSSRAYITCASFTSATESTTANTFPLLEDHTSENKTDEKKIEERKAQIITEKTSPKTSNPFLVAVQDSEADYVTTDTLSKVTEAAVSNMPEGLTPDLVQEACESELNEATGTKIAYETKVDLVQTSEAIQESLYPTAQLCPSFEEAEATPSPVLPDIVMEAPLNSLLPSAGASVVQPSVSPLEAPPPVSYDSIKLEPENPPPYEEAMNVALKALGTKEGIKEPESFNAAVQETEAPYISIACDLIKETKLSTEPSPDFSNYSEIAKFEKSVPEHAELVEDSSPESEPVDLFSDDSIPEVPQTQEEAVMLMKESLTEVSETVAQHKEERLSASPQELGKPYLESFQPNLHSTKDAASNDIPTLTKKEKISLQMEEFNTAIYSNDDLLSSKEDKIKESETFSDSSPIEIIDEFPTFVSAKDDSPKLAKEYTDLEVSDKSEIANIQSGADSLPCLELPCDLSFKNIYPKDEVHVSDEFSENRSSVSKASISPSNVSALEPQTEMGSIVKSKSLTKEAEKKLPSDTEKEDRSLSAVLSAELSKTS
Put plainly: SPR, Biacore; similar analysis using rat NOGO-A.

Assay [2] has as its target T2, recombinantly expressed human NOGO-A (hNOGO) (human, UniProt Q9NQC3 586-785, limits assumed).
T2 sequence (looked up): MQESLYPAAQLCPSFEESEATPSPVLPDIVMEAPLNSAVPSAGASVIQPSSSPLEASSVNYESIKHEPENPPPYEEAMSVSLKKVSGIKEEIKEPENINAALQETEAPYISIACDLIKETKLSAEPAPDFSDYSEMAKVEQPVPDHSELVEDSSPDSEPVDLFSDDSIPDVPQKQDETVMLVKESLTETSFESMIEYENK
Put plainly: SPR, Biacore3000; hNOGO amine-coupled to CM5 chip, antibody in solution. On the procedure:
The binding kinetics of the anti-NOGO monoclonal antibody (mAb) to recombinantly expressed human NOGO-A (hNOGO) was analysed using the Biacore3000 biosensor. The methodology was as followed:
hNOGO was immobilised to a CM5 chip by primary amine coupling using the Biacore Wizard program designed for targeted immobilisation levels. The CM5 sensor surface was activated by passing a solution of 50 mM N-hydroxy-succinimide (NHS) and 200 mM N-ethyl-N′-dimethylaminopropyl carbonide (EDC). Then using a 300 nM solution of hNOGO in 5 mM sodium acetate, pH5.0, a range of concentrations between 50-200 resonance units of hNOGO were immobilised. After immobilisation was complete any still activated esters were blocked by an injection of 1 M ethanolamine hydrochloride, pH8.5.
The H1L11 mAb (see example 8) was diluted down in HBS-EP (10 mM HEPES, pH 7.4, 150 mM NaCl, 3 mM EDTA, and 0.005% P-20 surfactant) and binding studies were carried out at concentrations ranging between 0.1-100 nM. For kinetic analysis a flowrate of 60 μl/minute was used, with no mass transfer effects seen. All concentrations were performed in duplicate, in a random order with buffer blanks included. Regeneration was achieved either by the single injection of a 15 μl pulse of 50 mM sodium hydroxide alone or the injection of 15 μl of 100 mM H₃PO₄, followed by a subsequent injection of 15 μl of 50 mM sodium hydroxide. […] All runs were referenced against a blanked sensor surface (one that had been activated and blocked as described earlier but had no addition of ligand). Analysis of binding was carried out using the BIAevaluation kinetic analysis software version 4.1. Biacore analysis of other antibodies of the invention essentially followed the same protocol as described herein.
(SPR reads the build-up and loss of mass on a sensor chip optically.)

Assay [3] addresses T3, GST-human NOGO-A56 fusion protein (amino acids 586-785 of human NOGO-A) (human, UniProt Q9NQC3 586-786).
T3 construct: Expressed in E. coli BL21 and purified on glutathione-sepharose; Coated on plates for the ELISAs and dried onto wells for the neurite outgrowth assay; also called GST-NOGO-A56; GST-Nogo5&6
T3 sequence: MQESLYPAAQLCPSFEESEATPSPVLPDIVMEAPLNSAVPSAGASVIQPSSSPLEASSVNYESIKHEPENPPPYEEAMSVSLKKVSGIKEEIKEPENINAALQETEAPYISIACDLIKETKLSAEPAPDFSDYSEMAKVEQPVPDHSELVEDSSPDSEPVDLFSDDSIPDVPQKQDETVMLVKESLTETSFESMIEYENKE
The assay can be described thus: ELISA; GST-human NOGO-A56 coated at 1 µg/ml, anti-human kappa peroxidase detection. On the procedure:
GST-human NOGO-A56 at 1 μg/ml in 50 mM Tris pH9.5 was coated onto Nunc Immunosorp plates (100 μl per well) at 4° C. overnight. Wells were rinsed once with TBS+0.05% tween then incubated with 2% BSA in TBS+0.05% tween to block non-specific binding sites at room temperature for Ihour. Antibodies were diluted in TBS+0.05% tween+2% BSA to 10 μg/ml and ½ dilutions made from this. Antibodies were added to wells in duplicate and incubated at room temperature for 1 hour. Wells were washed three times with TBS+0.05% tween then incubated with anti-human kappa peroxidase conjugate (1:2000) for 1 hour. Washed three times with TBS+0.05% tween and then incubated with 100 μl OPD peroxidase substrate (Sigma) per well for 10 minutes. The colour reaction was stopped by the addition of 25 μl concentrated H₂SO₄. Optical density at 490 nm was measured using a plate reader. Background values read from wells with no antibody were subtracted.
FIGS. 35A to C illustrates the dose-dependent binding of humanised antibody H1L11 in comparison with the chimera (HcLc) to human NOGO-A56 in an ELISA assay.
On the technique in general: An ELISA detects its analyte on a solid surface through an enzyme-linked reagent.

One may read the Kd as a measure of binding affinity in units of concentration. Broadly, the koff is a measure of how fast the partners let go of each other. As a reminder, the kon is the second-order rate constant of association. Usually EC50 stands for the concentration that produces a half-maximal response. Higher therefore signals lower potency in that assay.

B1: Anti-NOGO antibody 2C4/1 (mouse monoclonal) (antibody, V domains shown)
VH: EVQLVESGGGLVKPGGSLKLSCAASGFTFSCYAMSWVRQTPEKRLEWVASISDGGSYTYYPDNVKGRFTISRDNAKNNLYLQMSHLKSEDTAMYYCAKELLFDYWGQGTTLTVSS
VL: DVVMTQTPLSLPVSLGDQASISCRSSQSLVHSNGNTYLHWYLQKPGQSPKLLIYKVSNRFSGVPDRFSGSGSGTDFTLKISRVEAEDLGVYFCSQSTHVPLTFGAGTKLELK
notes: Mouse hybridoma antibody; also called Mouse 2C4
Take B1: in assay [1], the Kd stood at 3.9 nM, the koff was 0.000533 s⁻¹ and the kon stood at 162000 M⁻¹ s⁻¹. Also, in assay [2], the equilibrium dissociation constant (Kd) was 8 nM, the koff came to 0.000644 s⁻¹ and the on-rate (kon) worked out at 80900 M⁻¹ s⁻¹.

B2: Anti-NOGO antibody 15C3/3 (mouse monoclonal) (antibody, V domains shown)
VH: QVQLQQSGAELVKPGASVKISCKASGYAFSSYWMNWVKQRPGKGLEWIGQIYPGDGDTNYNGKFKGKATLTADKSSSTAYMQLSSLTSEDSAVYFCAVRFDYWGQGTTLTVSS
VL: DIVMTQAAPSVPVTPGESVSISCRSSKSLLHSNGNTYLYWFLQRPGQSPQLLIYRMSNLASGVPDRFSGSGSGTAFTLRISRVEAEDVGVYYCMQHLEYPLTFGAGTKLELK
notes: Mouse hybridoma antibody; also called Mouse 15C3
In assay [1], B2 registered a Kd of 24.9 nM, a koff of 0.00087 s⁻¹ and a kon of 46000 M⁻¹ s⁻¹. Further, in assay [2], the Kd stood at 17.5 nM, the koff is 0.000828 s⁻¹ and the kon was 40700 M⁻¹ s⁻¹.

B3: Chimeric 2A10 (HcLc) (antibody, human IgG1, kappa, V domains shown)
VH: QVQLQQPGTELVKPGASVKLSCKASGYTFTSYWMHWVKQRPGQGLEWIGNINPSNGGTNYNEKFKSKATLTVDKSSSTAYMQLSSLTSEDSAVYYCELGQGYWGQGTLVTVSS
VL: DIVITQDELSNPVTSGESVSISCRSSKSLLYKDGKTYLNWFLQRPGQSPQLLIYLMSTRASGVSDRFSGSGSGTDFTLEISRVKAEDVGVYYCQQLVEYPLTFGAGTKLELKR
notes: Murine 2A10 V regions on human IgG1/k wild type C regions; also called chimaera of 2A10; the chimera
As to B3, in assay [2], the Kd amounted to 1.26 nM, the koff is 0.00249 s⁻¹ and the kon was 2.23e+06 M⁻¹ s⁻¹. In addition, the midpoint of the response in assay [3], the EC50, lay at 0.022 µg/mL.

B4: Anti-NOGO antibody 2A10/3 (mouse monoclonal) (antibody, V domains shown)
VH: QVQLQQPGTELVKPGASVKLSCKASGYTFTSYWMHWVKQRPGQGLEWIGNINPSNGGTNYNEKFKSKATLTVDKSSSTAYMQLSSLTSEDSAVYYCELGQGYWGQGTTLTVSS
VL: DIVITQDELSNPVTSGESVSISCRSSKSLLYKDGKTYLNWFLQRPGQSPQLLIYLMSTRASGVSDRFSGSGSGTDFTLEISRVKAEDVGVYYCQQLVEYPLTFGAGTKLELK
notes: Mouse hybridoma antibody; also called Mouse 2A10; 2A10-BR
In assay [1], B4 had a Kd of 1 nM, a koff of 0.00101 s⁻¹ and a kon of 1.26e+06 M⁻¹ s⁻¹. In addition, in assay [2], the Kd came to 0.8 nM, the koff came to 0.00184 s⁻¹ and the kon is 2.9e+06 M⁻¹ s⁻¹.

B5: Humanised anti-NOGO antibody H1L11 (antibody, V domains shown)
VH: QVQLVQSGAEVKKPGASVKVSCKASGYTFTSYWMHWVRQAPGQGLEWMGNINPSNGGTNYNEKFKSRVTMTRDTSTSTVYMELSSLRSEDTAVYYCELGQGYWGQGTTVTVSS
VL: DIVITQSPLSLPVTLGQPASISCRSSKSLLYKDGKTYLNWFQQRPGQSPQLLIYLMSTRASGVPDRFSGGGSGTDFTLKISRVEAEDVGVYYCQQLVEYPLTFGQGTKLEIK
notes: It was expressed transiently in CHO cells; also called H1l L11
As to B5, in assay [2], the Kd came out at 22.2 nM, the koff was found to be 0.0215 s⁻¹ and the kon came out at 1e+06 M⁻¹ s⁻¹. The molecule also had an EC50 in assay [3] of 0.118 µg/mL.
